Laboratory results from the nanobody polyreactivity screen of Harvey et al. (2022).

Experiment: yeast display, Sf9 membrane polyspecificity reagent, FACS + sequencing; frameworks hold sequencing errors
Summary of the method: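 After 36–48 hours of galactose induction, yeast (Saccharomyces cerevisiae BJ5465) displaying a synthetic nanobody library were stained at 4 °C for 1 hour with 10% biotinylated, detergent-solubilized Sf9 membrane reagent. Streptavidin microbeads enriched the stained cells before FACS sorting into low and high (top ~1%) gates on anti-HA and streptavidin fluorescence. Each clone's polyreactivity label reflects its gate of origin.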

Sequence | polyreactivity (PSR sort gate)
QVQLVESGGRLVQAGGSLRLSCAASGRTFGSYAMGWFRQAPGKERELVATIRNSGGISYYADSVKGRFTISRDTAKNTVYLQMNSLKPEDTAVYDCAKLGRYGYDYWGQGTQVTVSS | high polyreactivity
QVQLVESGGGLVQAGGSLRLSCAASGNTFRRNVMGWYRQAPGKERELVAAINRGGSTTDADSVKGRFTISRDNAKNTVYLQMNSLKPEDTAVYYCNARTLFKWRHGHYYAYDYWGQGTQVTVSS | high polyreactivity
QVQLVESGGGLVQAGGSLRLSCAATGSIFRWNTMGWYRPAPGKERELVAVITWSGDSTYYADSVKGRFTISRDNAKNTVYLQMNSLKPEDTAVYYCAVDVVTSYYELTGSFNYWGQGTQVTVSS | low polyreactivity
QVQLVESGGGLVQAGGTLRLSCAASGSIFANYAMGWYRQAPGKERELVASISSGDSTNYADSVKGRFTISRDNAKNTVYLQMNSLKPEDTAVYYCASTFVGGIWSGYNYWGQGTQVTVSS | low polyreactivity
QVQLVESGGGLVQAGGSLRLSCAASGSPFRSYAMGWYRQAPGKERELVAAISISGGRTYYADSVKGRFTISRDNAKNTVYLQMNSLKPEDTAVYYCAADRRTDGHDYWGQGTQVTVSS | high polyreactivity
QVQLVESGGGLVQAGGSLRLSCAASGSTFYSYVMGWYRQAPGKERELVAVISNDGSTNYADSVKGRFTISRDNAKNTVYLQMNSLKPEDTAVYYCNAEWTRDFYEYDYWGQGTQVTVSS | low polyreactivity
QVQLVESGGGLVQAGGSLRLSCAASGRILGTYAMGWYRQAPGKERELVAAISGSGGDTYYADSVKGRFTISRDNAKNTVYLQMNSLKPEDTAVYYCAAEVPFTGGFFKYYYWGQGTQVTVSS | low polyreactivity
QVQLVESGGGLVQAGGSLRLSCAASGSIFGGYAMGWYRQAPGKERELVARITDRGGSTDYADSVKGRFTISRDNAKNTVYLQMNSLKPEDTAVYYCAKRGDRYEKRPRDYWGQGTQVTVSS | low polyreactivity
QVQLVESGGGLVQAGGSLRLSCAASGRIFSSYAMGWYRQAPGKERELVAAISRSGARTYYADSVKGRFTISRDNAKNTVYLQMNSLKPEDTAVYYCAAVTVAGYDYWGQGTQVTVSS | high polyreactivity
QDQLGESGGGLVQAGGSLRLICAASGRIFPYYAMAWYRQAAGKEREFVASITKRRGSTSYADSVKGRFTISRDNAKNTVYLQMHSLKPEDTAVYYCAARRGSGMVTYYGGDYWGQGTQVTVSS | low polyreactivity
QVQLVESGGGLVQAGGSLRLSCAASGRTFLYNAMGWYRQAPGKERELVAAISWSGGSTYYADSVKGRFTISRDNAKNTVYLQMNSLKPEDTAVYYCAATGRRSGFYYWGQGTQVTVSS | high polyreactivity
QVQLVESGGGLDQAGGSLRLSCAASGSIFLDYAMGWYRQAPGKERELVAAISLSSSRTYYADSLKGRFTISRDNAKNTVYLQLNSLKPEDTAVYNCNKLSIWSYYFGPYGYDYWGQGTQVTVSS | low polyreactivity
QVQLVQTGGGLVQAGGSLRLSCAASGRTFRYYAMGLYRQAPGKEREFVATITYSSGSTYYADSVKGRFTISRDNAKNTVYLQMNSLKPEDTAVYYCNAEGYCNSYGYWGQGTQVTVSS | low polyreactivity
QVQLVESGGGLVQAGGRLRLSCAASGGWYRQAPGKERELVAAISWRDSSTYYADSVKGRFTISRDNAKNTVYLQMNSLKPEDTAVYYCAVRAYPWPEYYYWGQGTQVTVSS | low polyreactivity
QVQLVESGGGLVQAGGSLRLSCAASGFIFTQNAMGWYRQAPGKERELVAVIRWNGGSTYYADSVKGRITISRDNAKNTVYLQMNSLKREDTAVYYCAAEFLWIVDYWGQGTQVTVSS | low polyreactivity
QVQLVESGGGLVQAGGSLLVSCAASGRIFSYNAMGWYRQAPGKERELVAAITRSGSTNYADSVKGRFTISRDNANNTVYLQMNSLKPEDTAVYYCAAVVYRPYRWQYDYWGQGTQVTVSS | high polyreactivity
QVQLVESGGGLVQAGGSLRLSCAASGRIFDYYAMGWYRQAPGKERELVAGITSDGDITYYADSVKGRFTISRDNAKNTVYLQMNSLKPEDTAVYYCAADSPHPVRYDYWGQGTQVTVSS | low polyreactivity
QVQLVESGGGLVQAGGSLRISCAASGRIFGINSMGWYRQAPAKERELVAAMSRGGTTNYADSVKGRFTISRDNAKNTVYLQMNSLKPEDTAVYYCNAVGFYAPNTFDYWGQGTQVTVSS | high polyreactivity
QVQLVVSGGGLVQAGGSLRLSCAASGSIFNVYAMGWYRPAPGKARELVAAITNGDSTNYADSVKGRFTISRDTAKNTVYLQMHSLKPEDTAVYYCNARAPSEYYGLEYDDWGQGTQGTVSS | low polyreactivity
QVQHVESRGGLVQARGSLRLSCAASGRIFSPYAMGWYRQAPGKERELVAAITWSGGSTYYADSVKGRFTISRDNAMNTVYLQMNSLKQEDTAVYYCAADFYRRYYAWEYYYWGQGTQVTVSS | high polyreactivity
QFQIVESGGGLVQAGGSLRLSCAASGSTFRTNAMGWYRQAPGKERELVARIRYSVGSTYYADSVKGRFTISRDNAKNTVYLQMNSLKPEDTAVYYCAAENQRVGTFREHDSWGQGTQVTVSS | low polyreactivity
QVQLVESGGGLVQAGGSLRLSCAASGSIFGRYVMGWYRQAPGKERELVARITQSGGSTYYADSVKGRFTISRDNAKNTVYLQMNSLKPEDTAVYYCAAATSWWWLYYWGQGTQVTVSS | high polyreactivity

Sequence | polyreactivity (PSR sort gate)
QVQLVESGGGLVQAGGSLRLSCAASGFYFYSYAMGGYRQAPGKERELVAVISGSGGSTYYADSVKGRFTISRDNAKNTVYLQMNSLKPEDTAVYYCAARNQGNIYGYWGQGTQVTVSS | high polyreactivity
QVQLVESGGGLVQAGGSLRLSCAASGRIFDLNAMGWYRQAPGKERELVATITRSGVSTYYADSVKGRFTISRDNAKNTVYLQLYSLKPEDTAVYYCAKDRYGWGYDYWGQGTQVTVSS | low polyreactivity
QVQLVESGGGLVQAGGSLRLSFAASGYIFYPNVMGWYRQAPGKERELVADISSGGSTNYADSVKGRFTISRDNAKNTVYLQINSLKPEDTAVYYCAKGPRLYFTRDKAHWKYDYWGQGTQVTVSS | low polyreactivity
QVQLVESGGGLVQAGGSLRLSCAASGLIFYSYAMGWYRQAPGKERELVAAITGGGSTNYADSVKGRFTISRDNAKNTVYLQMNSLKPEDTAVYYCAAAFTLRKYDYWGQGTQVTVSS | low polyreactivity
QVQLVESGGGLVQAGGSLRLSCAASGRIFYSNAMGWYRQAPGKERELVAAITGSGGRTHYADSVKGRFTISRDNAKNTVYLQMNSLKPEDTAVYYCAKDGYFPEFDYWGQGTKVTVSS | high polyreactivity
QVQLVESGGGLVQAGGSLRLSCAASGIIFSYYARGWYRQAPGKDRELVAAISSSGVSTNYADSVKGRFTISRDNAKNTVYLQMTSLKPEDTAVYYCAADYGSWSNWGYEYWGQGTQVTVSS | high polyreactivity
QVQLVESGGGLVQAGGSLRLSCAASGRTFYRNVMGWYRQAPGKVRELVAVITSGGRTNYADSVKGRFTISRDNAKNTVYLQMNSLKPEDTAVYSCNTALSSRSNKMYYWGQGTQVTVSS | high polyreactivity
QVQLVESGGGLVQAGGSLRLSCAASGSIFTYNAMGWYRPAPGKERELVASITWSGGSTYYADSVKGRFTISRDNAKNTVSLQMNSLKPEDTAVYYCAAKRVHGATGYWGQGTQVTVSS | high polyreactivity
QVQLVESGGGLVQAGGSLRLSCAASGLIFVSYAMGWYRPAPGKERELVASITDSDSSTYYADSVKGRFTISRDNAKNTVYLQMNSLKPEDTAVYYCATGGRTEIWYPTLDYWGQGTQVTVSS | low polyreactivity
QVQLVESGGGLVQAGGSLRLSCAASGLTFTKYAMGWYRKAPGKEREFVASISWNGGDTYADSVKGRFTISRDNAKNTVYLQMNSLKPEDTAVYYCAARRTQQKVYYWGQGTQVTVSS | high polyreactivity
QVQLVESAGGLVQAGGSLRLSCAASGRTLYRYAMGWYSQAPGKERELVAAIRWSGGSTYYADSVKGRFTISRDNAKNTVYLQMNSLKPEDTAVYYCNAGRSWRRTHYDYWGQGTQVTVSS | high polyreactivity
QFQLVESGGGLVQAGGSLRLSCAASGFTFRKYAMGWYRQAPGKERELVAAIRSTGRSNYADSVKGRFTISRDNAKNTVYFQMNSLKPVDTAVYYFNVDLTYYYYEVDYWGQGTQVTVSS | high polyreactivity
QVQLVESGGGLVQAGGSLRLSCAASGSTFLYYAMGWYRQAPGKERQLVAAISGSGGSTYYADSVKGRFTISRDNAKNNVYLQMYSLKPEDTAVYYCNAVARRHGLGPYDYWGQGTQVTVSS | high polyreactivity
QVQLVESGGGLVQAGGSLRLSCAASGRTFVYNAMGWYRQAPGKERELVAAITWNGGSTYYADSVKGRFTISRDNAKNTVYLQMNSLKPEDTAVYYCNRDVRYVGPSGFDYWGQGTQVTVSS | high polyreactivity
HVQLVESGGGLVQAGGSLRVSCAASGRIFYYCARGWYGQAPGKEWELVAAITWSGGSTYYADSLMGRFTISRDNANNTVYVHKNSLKPEDPAVAYCTKSAAITGNGQMDYWGQCTQVTVSS | low polyreactivity
QVQLVESGGGLVQAGGSLRLSCAASGSTSWSYAMGWYRQAPGKERELVAAITRTGSTNYADSVKGRFTISRDNAKNTVYLQMNSLKPEDTAVYYCVYATLRYDYWGQGTQVTVSS | low polyreactivity
QDQLVESGGGLVQAGGSLRLSFAASGFTFDHYAMGWSRQAPGKEREYVARITGTGDSTYYADSVKGRFTISRDNAKNTVYLQMNSLKPEDTAVYYCAKDFTGHYPNGFDYWGQGTQVTVSS | low polyreactivity
QVQLVESGVGLVQAGGSLRLSCAASGRNFAYYAMGWYRQAPGKERELVAAISSGGTTNYADSVKGRFTISRDNAKNTVYLQMNSLKPDDTAVYDCNADGWRRSRQYYYWGQGTQVTVSS | low polyreactivity
QVQLVESGGGLVQAGGSLRLSCAASGSTFAEYAMGWYRQAPGKERELVAAIRWSGGSTSYADSVKGRFTISRDNAKNTVYLQMNSLKPEDTAVYYCAAERFWYDGEVKLYVLSYYWGQGTQVTVSS | low polyreactivity
QVQLVESGGGLVQAGGSLRLSCAASGSIFGYYAKGWYRQAPGKERELVAAIDSGGGSTYYADSVRGRVTISRDNAKNTVYIQMNRLKPEDTAVYYCAAVSYSYPSLLYEYWGQGTQVTVSS | low polyreactivity
QVQLVESGGGLVQAGGSLRLSCAASGSIFDGYAMGWYRQAPGKERELVAAISSSGVTTYYADSVKGRFTISRDNAKNTVYLQMNSLKPEDTAVYYCATYSYTWLNYYWGQGTQVTVSS | high polyreactivity
